Values quoted from earlier work, collected in patent publication US20050191360A1, “Particles for inhalation having rapid release properties” (Advanced Inhalation Research, Inc., priority 2004, published 2005).

Conditions: rat, in vivo

## PTH34: parathyroid hormone fragment given as dry powder formulation via intratracheal delivery (Patton et al.)
  time at which the peak PTH level was reached: about 15 minutes
